# Measured values: patent publication US20100266532A1, “METHODS FOR INHIBITING SCARRING” (Renovo Limited, priority 2007, published 2010)
# Key:
# [1] = tested on: 1 centimetre experimental wound; test: Clinical trial, single intradermal injection, lay panel VAS scar scoring (ToScar); assay type: in vivo, human
# Experimental: FIG. 1 illustrates data from a clinical trial conducted by the inventors to generate a dose response curve indicative of the anti-scarring effect achieved using various different doses of TGF-β3 administered in a single incidence of treatment. Either TGF-β3 or placebo were administered as a single intradermal injection to a 1 centimetre experimental wound. […] To test the treatment effect, ToScar of the TGFβ3 scar was subtracted from the anatomically matched Placebo ToScar on the other arm on each subject. ToScar was calculated as the sum of VAS scores (mm) from week 6 and months 3, 4, 5, 6 and 7. The scars were scored by an independent lay panel at 6 time points after dosing (week 6, months 3-7) using a 100 mm VAS line.
# [2] = tested on: 1 cm incisional rat wounds; test: Rat model of wound healing and scarring, escalating versus constant doses, macroscopic VAS; assay type: in vivo
# Experimental: FIG. 11 is a graph comparing the mean differences between macroscopic VAS scores of scars formed on healing of 1 cm incisional rat wounds treated with a diluent control (“placebo treated wounds”), and scars formed on healing of wounds provided with one of the following regimes: • i) TGF-β3 control treatment using 20 ng TGF-β3 per centimetre; • ii) TGF-β3 control treatment using 100 ng TGF-β3 per centimetre; or • iii) TGFβ3 treatment using escalating doses of TGF-β3 administered in sequential incidences of treatment.
# In each case the wounds were subject to two incidences of treatment, the first prior to wounding and the second approximately 24 hours later.
# Placebo treated control wounds were provided with two incidences of treatment, each of which consisted of administration of a diluent. These placebo treated wounds provide a baseline value for scarring, with reference to which scar inhibition produced by TGF-β3 treatments may be determined. “Control treated wounds” were provided with two incidences of treatment, each comprising injections of TGF-β3 at either 20 ng/100 μl or 100 ng/100 μl (the same concentration of TGF-β3 being injected in each incidence of treatment). The “treated wounds” were provided with an escalating dose regimen in which the first incidence of treatment comprised an injection of 20 ng/100 μl TGFβ3, while the second incidence of treatment comprised an injection of 100 ng/100 μl TGFβ3.
# Each animal received two wounds, and these were arranged so that the wounds of each animal included placebo treated wounds, as well as either treated wounds (examples treated using escalating doses of TGF-β3 administered in sequential incidences of treatment), or control treated wounds (receiving control treatment with TGF-β3 at the same dose in each incidence of treatment). This permits comparison between scars formed on healing of placebo treated wounds and treated or control treated wounds within the same subject. […]
# Scars were assessed, and VAS scores produced, 70 days after wounding. […]
# [3] = tested on: human wounds; test: Clinical trial, two incidences of treatment within approximately 1 hour, lay panel VAS scar scoring; assay type: in vivo
# Experimental: FIG. 2 illustrates data from a clinical trial conducted by the inventors. In this study TGFβ3 and Placebo were each administered in two separate incidences of treatment (by means of two intradermal injections). However, unlike the methods of the present invention, the first incidence of treatment took place immediately prior to wounding but the second incidence of treatment occurred immediately after wound closure, i.e., both doses being administered within approximately 1 hour of one another (the first ten to thirty minutes prior to wounding, and the second ten to thirty minutes post-wounding). […] To test the treatment effect, ToScar of the TGFβ3 scar was subtracted from the anatomically matched Placebo ToScar on the other arm on each subject. ToScar was calculated as the sum of VAS scores (mm) from week 6 and months 3, 4, 5, 6 and 7. The scars were scored by an independent lay panel at 6 time points after dosing (week 6, months 3-7) using a 100 mm VAS line.
# FIG. 8 illustrates data from a clinical trial conducted by the inventors in which either TGF-β3 or placebo were administered in two incidents of treatment (each comprising administration of the test substance by intradermal injection), the first incidence occurring prior to wounding and the second immediately after wound closure, i.e., both doses of TGF-β3 being the same as one another, and administered within approximately 1 hour (10-30 mins prior to wounding and 10-30 mins post wounding).
molecule,measurement,setting,value
"TGF-β3: well-known anti-scarring growth factor, Sequence ID No. 1; labelled ""Juvista"" in FIGS. 8 and 9 (protein, listed as Homo sapiens) ALDTNYCFRNLEENCCVRPLYIDFRQDLGWKWVHEPKGYYANFCSGPCPYLRSADTTHSTVLGLYNTLNPEASASPCCVPQDLEPLTILYYVGRTPKVEQLSNMVVKSCKCS",inhibition of scarring,"[1]; single application of 50 ng, 200 ng or 500 ng/100 μl per cm of wound margin",effectively inhibited
same,"scar improvement (placebo ToScar minus TGFβ3 ToScar, sum of VAS scores), average","[1]; single application, 200 ng/100 μl per cm of wound margin, maximum improvement",> 50 mm
same,drug efficacy at top of dose range,"[1]; single application, 500 ng/100 μl per cm of wound margin, versus 200 ng",reduction in drug efficacy
same,scarring compared to placebo (macroscopic VAS),"[2]; dosed twice with either 20 ng/100 μl or 100 ng/100 μl, 24 hours apart, 70 days after wounding",displayed a reduction in scarring
same,inhibition of scarring (macroscopic VAS) versus constant doses,"[2]; escalating: 20 ng/100 μl then 100 ng/100 μl approximately 24 hours later, 70 days after wounding",much larger magnitude of effect
same,"inhibition of scarring, macroscopic images","[2]; escalating: 20 ng/100 μl then 100 ng/100 μl approximately 24 hours later, 70 days post wounding",greatest inhibition in scarring
same,inhibition of scarring (mean VAS scores over time),"[3]; two applications of 5, 50, 200 and 500 ng/100 μl per cm within approximately 1 hour, week 6 to month 7",scarring is inhibited
same,inhibition of scarring,"[3]; two applications of 5, 50, 200 and 500 ng/100 μl per cm, both within approximately 1 hour",effectively inhibited
same,"scar improvement (placebo ToScar minus TGFβ3 ToScar, sum of VAS scores), average","[3]; two applications within approximately 1 hour, 200 ng/100 μl per cm, maximum improvement",> 40 mm
same,drug efficacy at top of dose range,"[3]; two applications within approximately 1 hour, 500 ng/100 μl per cm, versus 200 ng",reduction in drug efficacy
